Data from US9884910B2, “Anti-PDGF-C antibodies” (ThromboGenics NV, priority 2012, dated 2018).

B1: 5A2: murine monoclonal anti-PDGF-C antibody, IgG2b κ; VL SEQ ID NO:15, VH SEQ ID NO:19 (antibody, listed as Mus musculus, V domains shown)
VH: EVQLVESGGDLVKPGGSLKLSCAASGFTFSNYGMSWVRQTPDKRLEWVATIGSGGHYTYYPDSVKGRFTISRDSAKSTLYLQMSSLKSEDTAIYYCARQAPLWDCSDYWGQGTTLTVSS
VL: DVLMTQTPLSLPVSLGDQASISCRSNQSIVHSNGDTYLEWYLQKPGQSPKLLIYKVSNRFSGVPDRFSGSGSGTDFTLKISRVEAEDLGVYYCFQGSHVPPTFGGGTKLEIK
B2: 16B1: murine monoclonal anti-PDGF-C antibody, IgG1 κ; VL SEQ ID NO:15, VH SEQ ID NO:18 (antibody, listed as Mus musculus, V domains shown)
VH: EVQLVESGGDLVKPGGSLKLSCAASGFTFSNYGMSWVRQTPDKRLEWVATIGSGGSYTYYPDSVKGRFTISRDSAKNTLYLQMSSLKSEDTAMYYCARQAPLWDYSDYWGQGTTLTVSS
VL: DVLMTQTPLSLPVSLGDQASISCRSNQSIVHSNGDTYLEWYLQKPGQSPKLLIYKVSNRFSGVPDRFSGSGSGTDFTLKISRVEAEDLGVYYCFQGSHVPPTFGGGTKLEIK
B3: 5H7: murine monoclonal anti-PDGF-C antibody, IgG1 κ; VL SEQ ID NO:16, VH SEQ ID NO:20 (antibody, listed as Mus musculus, V domains shown)
VH: EVQLVESGGDLVKPGGSLKLSCAASGFTFSSYGMSWVRQTPDKRLEWVATIGYGGSFTYYPDSMKGRFTISRDNAKNTLFLQMSSLKSEDTAIYYCVRQAPLWDYFDYWGQGTTLTVSS
VL: DVLMTQTPLSLPVSLGDQASISCRSSQTIVHSDGTTYLEWYLQKAGQSPKLLIYKVSNRFSGVPDRFSGSGSGTDFTLKISRVEAEDLGVYYCFQGSHVPPTFGGGTKLEIK
B4: 2D3: murine monoclonal anti-PDGF-C antibody, IgG1 κ; VL SEQ ID NO:14, VH SEQ ID NO:18 (antibody, listed as Mus musculus, V domains shown)
VH: EVQLVESGGDLVKPGGSLKLSCAASGFTFSNYGMSWVRQTPDKRLEWVATIGSGGSYTYYPDSVKGRFTISRDSAKNTLYLQMSSLKSEDTAMYYCARQAPLWDYSDYWGQGTTLTVSS
VL: DVLMTQTPLSLPVSLGDQASISCRSNQTIVHSNGDTYLEWYLQKPGQSPNLLIYKVSNRFSGVPDRFSGSGSGTDFTLKISRVEAEDLGVYYCFQGSHVPPTFGGGTKLEIK
B5: Humanized mAb 5H7: humanized 5H7; VH SEQ ID NO:102, VL SEQ ID NO:103 (antibody, V domains shown)
VH: EVQLLESGGGLVQPGGSLRLSCAASGFTFSSYGMSWVRQTPGKGLEWVATIGYGGSFTYYPDSMKGRFTISRDNAKNTLYLQMNSLRAEDTAVYYCARQAPLWDYFDYWGQGTLLTVSS
VL: DVVMTQSPLSLPVTLGQPASISCRSSQTIVHSDGTTYLEWYLQKPGQSPRLLIYKVSNRFSGVPDRFSGSGSGTDFTLKISRVEAEDVGVYYCFQGSHVPPTFGQGTKLEIK
modifications: humanized variable heavy chain murine monoclonal antibody 5H7; humanized variable light chain murine monoclonal antibody 5H7

How the values were obtained:
[1] = target: T1, 15-mer, overlapping peptides covering the entire human PDGF-C molecule (Homo sapiens, UniProt Q9NRA1); test: Epitope mapping ELISA on 15-mer overlapping peptides; format: binding; details: peptide coated 10 μg/mL, antibody 1 μg/mL
T1 construct: host or cells: chemical synthesis
Protocol: The binding of anti-PDGF-C antibodies to 15-mer, overlapping peptides covering the entire human PDGF-C molecule was assessed by ELISA. Antibodies included in this analysis are the five antibodies potently inhibiting activation of PDGF-Rα by PDGF-C, i.e. monoclonal antibodies 2D3, 5A2, 5H7, 16B1 and 29H1. Further included are two antibodies capable of binding to PDGF-C, but not or very poorly inhibiting activation of PDGF-Rα by PDGF-C, i.e. monoclonal antibodies 12E5 (IgG1) and 19F12 (IgG2b) (see Example 4). […] For all antibodies, it was confirmed that they bind to human PDGF-C and binding to full-length human PDGF-C was for all antibodies tested more efficient than binding to any of the peptides identified as described hereafter.
The indicated peptides where synthesized in an N-terminally biotinylated form and coated onto a neutravidin plate (Thermo Scientific, Cat. 15127) at a concentration of 10 μg/mL. The antibodies listed in the table were incubated in each well at a concentration of 1 μg/mL and, following washing, were then detected in a standard ELISA format using an appropriate, HRP-labeled secondary antibody (goat anti-mouse IgG-HRP for all antibodies except sc-80290, and goat anti-rat IgG-HRP for sc-80290). Each antibody was tested at least twice, and up to 4 times. A “+” in the table indicate that a signal to background >3 was found and confirmed at least once. The background signal was measured in the absence of peptide using both the primary and the secondary antibodies. Antibodies sc-80290 and MAB1560 were tested only against peptides 42-63 since this represents the fraction of the protein that was used as an immunogen.

glioblastoma tumor, U118 = test: Antitumor effect against U118 glioblastoma xenograft; format: in vivo; details: for TGI (%) Day 53: day 53 post-tumor implantation; for TGI (%) Day 60: day 60 post-tumor implantation; for TGI (%) Day 63: day 63 post-tumor implantation; for TGI (%) Day 67: day 67 post-tumor implantation
Protocol: For the evaluation of anti-tumor activity of the antibodies, animals were weighed and tumors measured 2 times weekly using a caliper. Tumor weights were calculated using the formula mass (mg)=[length (mm)×width (mm)^2]/2. Antitumor activity evaluation was done at the single dose of 20 mg/kg. A dosage producing a 20% body weight loss (bwl) or 10% or more drug deaths, was considered an excessively toxic dosage. Animal body weights included the tumor weights. The primary efficacy end point is the tumor growth inhibition (% TGI). Changes in tumor volume for each treated (T) and control (C) are calculated for each tumor by subtracting the tumor volume on the day of first treatment (staging day) from the tumor volume on the specified observation day. The median ΔT is calculated for the treated group and the median ΔC is calculated for the control group. Then the ratio ΔT/ΔC is calculated and expressed as a percentage of TGI: ΔT=Tt−T0 ΔC=Ct−C0 % TGI=[1−(median(Tt−T0)/median(Ct−C0)]*100
The antitumor effect of 29H1, 5A2 and 16B1 was evaluated against a measurable glioblastoma tumor, U118, which express both PDGF-C and its receptor, PDGFRa, S.C. implanted in female SCID Beige mice. Control group was treated with PBS alone. The antibodies were administered by an intraperitoneal (IP) injection, and treatment started on day 28 post-tumor implantation and was performed twice a week.

[2] = target: T2, PDGFRα activation by human PDGF-C (Homo sapiens, UniProt Q9NRA1); test: PathHunter PDGFRα receptor tyrosine kinase assay in U2OS PDGFRα PLCG1 cells; format: cell-based
T2 construct: the growth factor domain of PDGF-C (amino acids 235-345 of human PDGF-C); purchased R&D Systems 1687-CC/CF; host or cells: ligand added to U2OS PDGFRα PLCG1 cells (DiscoveRx, assay 93-0823C3) that express the transfected receptor
Source text: To evaluate the inhibitory activity of anti-human PDGF-C antibodies on PDGFRα activation by human PDGF-C, the PathHunter® receptor tyrosine kinase assay for PDGFRα (93-0823C3) from DiscoveRx® was used. […] A small complementing fragment of β-gal, the Prolink™ tag (PK) has been fused recombinantly to the intracellular C-terminus of the receptor tyrosine kinase PDGFRα. The larger portion of β-gal, termed EA for enzyme acceptor, is co-expressed with an SH2 (Src Homology 2) phosphotyrosine binding domain. Ligand-induced activation of the receptor results in dimerization and intra-cellular cross-phosphorylation of the receptor. Subsequently, the SH2 domain specifically binds the phosphorylated receptor resulting in the complementation of the two β-gal fragments PK and EA, and formation of a functional β-gal enzyme. Following addition of a β-gal substrate, an easily detectable chemiluminescent signal is produced which is directly correlated to receptor activation. The LumiLITE™ microplate reader is fully compatible with all EFC-based assays of DiscoveRx® and is therefore used.
For the PathHunter® PDGFRα, assay, U2OS PDGFRα, PLCG1 (phospholipase Cγ as the source of the SH2 domain) cells from DiscoveRx® were used. Frozen cells were stored in liquid nitrogen. Upon thawing, cells were resuspended in pre-warmed thawing medium (i.e. culture medium without the selection antibiotics Geneticin and Hygromycin B). After 48 hours of culture in a 5% CO2 incubator at 37° C., thawing medium was replaced by culture medium (MEM Eagle 1× (30-2003 from Invitrogen), 10% fetal bovine serum (SH30071.03 from Perbio Science), 1× Penicillin-Streptomycin-Glutamine (10378-016 from Invitrogen), 250 μg/ml Hygromycin B (10687-010 from Invitrogen), 500 μg/ml Geneticin (10131-035 from Invitrogen)). Once confluence was reached, cells were passaged with a ⅓ dilution every 2-3 days using Accutase (L11-007 from PAA). Cells were maintained in a non-confluent state during routine culture.
In the PathHunter® PDGFRα, assay, the U2OS PDGFRα, PLCG1 cells from DiscoveRx® cultured up to 10 passages were used. Cells were seeded at 20.000 cells in 100 μl per well in 96-well white culture-treated microplates with clear bottom (3610 from Corning). The PathHunter® Cell Plating 16 Reagent (93-0563R16 from DiscoveRx®) was employed as seeding medium. Following 24 hours of culture in 5% CO2 at 37° C., 25 μl of a 5-fold concentrated agonist solution in Cell Plating 16 Reagent was used per well to stimulate the cells. Recombinant human PDGF-C from R&D Systems (1687-CC/CF; Va1235-Gly345) was applied as agonist. After 3 hours incubation at room temperature, 60 μl of PathHunter® detection reagent (93-0001 from DiscoveRx®; 1 part Galacton Star® Substrate, 5 parts Emerald II™ Solution, and 19 parts of PathHunter® Cell Assay Buffer) was added. Cells were placed at room temperature and in the dark for another hour before luminescence was measured with the LumiLITE™ microplate reader. With GraphPad Prism® software, a non-linear regression analysis was performed using the obtained luminescent values in order to generate a sigmoidal agonist dose-response curve with variable slope. The EC50 (i.e. half maximal effective concentration) and EC80 value (i.e. the effective concentration that leads to 80% of the maximal response) for human PDGF-C was calculated.
To evaluate the inhibitory activity of anti-human PDGF-C antibodies on PDGFRα, activation by human PDGF-C, equal volumes of […] concentrated solutions of anti-human PDGF-C antibodies and the EC80 of human PDGF-C, prepared in Cell Plating 16 Reagent, were mixed and the assay was performed as described above. As positive controls, an anti-human PDGF-C polyclonal goat IgG antibody (AF1560 from R&D Systems) and recombinant human PDGFRα, Fc chimera (6765-PR from R&D Systems) were employed. […]

[3] = peptide binds secondary antibody
[4] = 20 mg/kg IP twice a week from day 28

T2 sequence (Q9NRA1 235-345): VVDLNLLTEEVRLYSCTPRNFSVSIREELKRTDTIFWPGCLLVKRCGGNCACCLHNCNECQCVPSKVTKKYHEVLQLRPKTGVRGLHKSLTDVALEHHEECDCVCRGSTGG

| Molecule | binding to peptide No 58 (SEQ ID NO: 96) VLQLRPKTGVRGLHK [1] | TGI (%) Day 53 (glioblastoma tumor, U118; [4]) [%] | TGI (%) Day 60 (glioblastoma tumor, U118; [4]) [%] | TGI (%) Day 63 (glioblastoma tumor, U118; [4]) [%] | TGI (%) Day 67 (glioblastoma tumor, U118; [4]) [%] | further results |
| --- | --- | --- | --- | --- | --- | --- |
| B1 | + (A “+” in the table indicate that a signal to background >3 was found and confirmed at least once) | 55.7 | 38.5 | 43.4 | 42.0 | binding to peptide No 9 (SEQ ID NO: 47) FPHTYPRNTVLVWRL [1, 3]: + (A “+” in the table indicate that a signal to background >3 was found and confirmed at least once); binding to peptide No 27 (SEQ ID NO: 65) EPGFCIHYNIVMPQF [1, 3]: + (A “+” in the table indicate that a signal to background >3 was found and confirmed at least once); tolerability / body weight loss (glioblastoma tumor, U118; 20 mg/kg IP twice a week): well-tolerated with no tumor body weight loss; TGI (%) Day 56 (glioblastoma tumor, U118; 20 mg/kg IP twice a week from day 28, day 56 post-tumor implantation): 58.5% |
| B2 |  | 8.25 | 27.6 | 11.5 | 11.9 | tumor growth block (in words) (glioblastoma tumor, U118; ip, at the different time points evaluated): failed to block tumor growth |
| B3 | + (A “+” in the table indicate that a signal to background >3 was found and confirmed at least once) |  |  |  |  |  |
| B4 | + (A “+” in the table indicate that a signal to background >3 was found and confirmed at least once) |  |  |  |  |  |
| B5 |  |  |  |  |  | inhibition of the PDGFRα activation by human PDGF-C (in words) [2]: apparently not inhibiting activation of PDGFR-α; IC50 value (nM) ([2]; humanized antibodies, * average of 3 measurements): nad |
